Reference: paper PMC9826837
Like-named read-outs stand apart in the source and are kept apart here.

Assays:
[1] = target: Ser22/23 bisphosphorylated rat cardiac troponin complex (cTn-2P), Alexa647-labelled (rat) (UniProt Q4PP99); experiment: MST
[2] = target: nonphosphorylated rat cardiac troponin complex (cTn-0P), Alexa647-labelled (rat) (UniProt Q4PP99); experiment: MST
[3] = target: N-terminal lobe of cardiac troponin C (NcTnC), Alexa647-labelled; experiment: MST
[4] = target: Ser22/23 bisphosphorylated rat cardiac troponin complex (cTn-2P), Alexa647-labelled (rat) (UniProt Q4PP99); experiment: MST; remark: listed apart in the source
[5] = target: nonphosphorylated rat cardiac troponin complex (cTn-0P), Alexa647-labelled (rat) (UniProt Q4PP99); experiment: MST; remark: listed apart in the source
[6] = target: rat cardiac troponin T (cTnT) (rat) (UniProt P50753); experiment: SEC-MALS

With “nonphosphorylated N-terminal fragment of rat cMyBP-C encompassing domains C0, C1, m-motif and C2 (cC0C2-0P) (domain or fragment)” the Kd [1] was 20 µM, the Kd [2] was 20 µM and the Kd [3] was 5 µM. It also gave a Kd [4] of 20 µM and a Kd [5] of 20 µM.
For “rat cardiac troponin C (cTnC) (from UniProt Q4PP99 1-161) (natural protein)”, the stoichiometry N [6] was 1.
